Data reported in the supplement of paper PMC9170038.

Tests used:
MS2 coat protein = assay: apparent KD of MS2 coat protein; higher = weaker reporter binding; conditions: Eterna round: R107
Experimental: (§1)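 RNA-MaP round R107: designed RNA switches with theophylline, tryptophan, arginine or FMN aptamers are transcribed on-chip within common flanks. They are titrated with SNAP-549-labelled MS2 coat protein in RNA-MaP buffer (100 mM Tris pH 7.5, 80 mM KCl, 4 mM MgCl2), without ligand or with the indicated ligand. Median apparent KD per design.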

[1] = system: K4 kissing-loop RNA reporter; assay: apparent KD of K4 kissing-loop reporter; higher = weaker reporter binding; conditions: Eterna round: R107;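 also: bound reporter read as fluorescence of individual clusters on recovered sequencing chips by microscopy, with normalized cluster intensities fitted with a binding model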
Experimental: as §1, with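 “a labelled K4 kissing-loop RNA reporter” for “SNAP-549-labelled MS2 coat protein”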

[2] = input ligand: theophylline 20 uM
[3] = input ligand: theophylline 2 mM
[4] = input ligand: tryptophan 2.4 mM

| Sequence | apparent KD of MS2 coat protein (MS2 coat protein; input ligand: arginine 13.2 mM) | apparent KD of MS2 coat protein (MS2 coat protein; input ligand: none) | apparent KD of MS2 coat protein (MS2 coat protein; [2]) | apparent KD of MS2 coat protein (MS2 coat protein; [3]) | apparent KD of MS2 coat protein (MS2 coat protein; [4]) | apparent KD of K4 kissing-loop reporter ([1]; input ligand: FMN 200 uM) | apparent KD of K4 kissing-loop reporter ([1]; input ligand: arginine 13.2 mM) | apparent KD of K4 kissing-loop reporter ([1]; input ligand: none) | apparent KD of K4 kissing-loop reporter [1, 2] | apparent KD of K4 kissing-loop reporter [1, 4] |
| --- | --- | --- | --- | --- | --- | --- | --- | --- | --- | --- |
| AAAACUCAUGGCUUAUAUCCGUGUCUCGAAGGAGCGUACAGCGGUACAGGUAGGUCGCGAGACAUGAGGAUCACCCAUGUGUAAA [XArg-A 20 V1&2 original #dotplot2>1] | 0.0223 µM | 0.0381 µM | 0.119 µM | 0.00146 µM | 0.000526 µM |  |  |  |  |  |
| AAAAGAGGUGGAAGGAGCGGGAGACAUGAGGAUCACCCAUGUGAUGUUACGAAAGGUUCAGCCCAGGUAGGUCGCCAUGUCGAAA [zczzmullin] | 0.0366 µM | 0.0468 µM | 0.268 µM | 0.175 µM | 0.0347 µM |  |  |  |  |  |
| AAAAUAAAAUAAAAGGUGGAAAUAAGGCGGCGAGGACCGGUACGGCCGCCACUCGCGUACAUGAGGAUCACCCAUGUCUGAAAAU [Same State - Tryptophan A (Freestyle 1)] | 0.0203 µM |  | 0.0282 µM | 0.0266 µM |  |  |  |  |  |  |
| AAAAUAAAGGCGGCCGCCACUAGAGUUAGGCUUAUGUACUGGGUAACAUGAGGAUCACCCAUGUAUAGGACCGGGCCAUAAUAAA [Same State - Tryptophan B (Freestyle 2)] | 0.028 µM | 0.0573 µM | 0.0821 µM | 0.073 µM | 0.0665 µM |  |  |  |  |  |
| AAAAUAAAUAAAACACGUAACAUGAAGGAUACCAGCCAGAAAACUGGCCCUUGGCAGCCUCUACAUGAGGAUCACCCAUGUCGUG [Mat - Same State Theophlline A - Mod of Eli - D16] | 0.156 µM |  | 0.114 µM |  | 0.293 µM |  |  |  |  |  |
| AAAAUAUACGGAAGGAGCGUGUAAGAUUAAGAACAUGAGGAUCACCCAUGUUUUAAGGGAACACAGGUAGGUCGCCGUAUAUAAA [11.N] | 0.0129 µM | 0.0119 µM | 0.0116 µM | 0.0103 µM | 0.0118 µM |  |  |  |  |  |
| AAACAUGAGGAUCACCCAUGUAAAGUUGAAGGAGCGACCAGAGGGUCAGGUAGGUCGCAACACAUGAGGAUCACCCAUGUAUCGA [DOUBLE!!! :-D #5] | 0.0413 µM | 0.0965 µM | 0.0885 µM | 0.0916 µM | 0.0727 µM |  |  |  |  |  |
| AAACAUGAGGAUCACCCAUGUAUACUUAGACGAGGACCGGUACGGCCGCCACUCGAACUUCAAGAUUUGGCGGAUAAUGUAUGUA [JR_Nu22_ExcTryptoA_Sub023] | 0.00974 µM | 0.0109 µM | 0.0161 µM | 0.0119 µM | 0.0119 µM |  |  |  |  |  |
| AAACAUUGCUCAGAUACCAGACAUGAGGAUCACCCAUGUACCAAGGUAACCGAAAGGCAUGUCCCUUGGCAGCUGAGCAAUGAAA [MAT - Exclusion Theophlline B - Mod of Eli - D15] | 0.0135 µM |  | 0.0174 µM |  | 0.013 µM |  |  |  |  |  |
| AAACCAAGGGAUGGGUGCCUUGGUAGUGAUACCAGCCUGGAAACAGGCCCUUGGCAGCACAUGAGGAUCACCCAUGUGAAAUAAU [TheoAX 18#OpenEnded] | 0.0229 µM | 0.0277 µM | 0.0896 µM | 0.0692 µM | 0.0466 µM |  |  |  |  |  |
| AAACGUUGCUGCGAUACCAGACAUGAGGAUCACCCAUGUACCAAGGUACGAAUAUAACAUGUCCCUUGGCAGCGCAGCAACGAAA [MAT - Exclusion Theophlline B - Mod of Eli - D7] | 0.0175 µM |  | 0.0227 µM |  | 0.0136 µM |  |  |  |  |  |
| AAACUGAUCUUCAGGAGUCACUAUAUCUCCCGAGGACCGGUACGGCCGCCACUCGAACGUUUACAUGAGGAUCACCCAUGUGACU [theeternabot_exclusion_MS2_Trp_A_4] | 0.0136 µM |  | 0.0164 µM | 0.0149 µM |  |  |  |  |  |  |
| AAAUAAAUAACUGAUACCAGUGUACUGACAUGAGGAUCACCCAUGUUGGGUUUUGUUGUACACCCUUGGCAGCAGAAAUAUAAAA [AstrosExyTheB#1] | 0.0287 µM |  | 0.0412 µM |  | 0.0379 µM |  |  |  |  |  |
| AAAUAAAUACAUGAGGAUCACCCAUGUGAAGGAGCGCCCGUUAGGGCAGGUAGGUCGCACAUGAAAGGGAAGCGAAAGAAAUAAU [ArgEX 15 #OpenEnded] | 0.0268 µM | 0.0202 µM | 0.0245 µM | 0.0165 µM | 0.0203 µM |  |  |  |  |  |
| AAAUAAAUACAUGAGGAUCACCCAUGUGAAGGAGCGCCCGUUAGGGCAGGUAGGUCGCACAUGAACUCCAAGCGAAAGAAAUAAU [ArgEX 16 #OpenEnded] | 0.0236 µM | 0.0183 µM | 0.0239 µM | 0.0227 µM | 0.0164 µM |  |  |  |  |  |
| UUGGCCCGGCCGGAAGGCCGGGCCUGCGAGCGAGGACCGGUACGGCCGCCACUCGGCGCAGUGAUGUUGCGUGGCCGCAAGGCCG [#2 Exclusion - Tryptophan A Attempt #1 (HarryS)] |  |  |  |  |  | 0.37 µM | 0.337 µM | 0.439 µM | 0.581 µM | 0.874 µM |
| UUGGCCGGACGGGAUACCAGUCAAAUCGUGUGCUUGGGAUGUCUAAGAGCCAGUGAUGUUGGCCCUUGGCAGCCCUCCCAGCUUG [Esleaqu] |  |  |  |  |  | 0.111 µM | 0.105 µM | 0.11 µM | 0.102 µM | 0.0935 µM |
| UUGUUUGGUUGAGAGGUUGGGCGAAAUGAUACCAGUAUAUAAGAAUACCCUUGGCAGCAUAAGAAAGAUAUAGUGAUGUUGUAUA [SSTheophA.L] |  |  |  |  |  | 0.597 µM | 0.32 µM | 0.431 µM | 0.56 µM | 0.411 µM |
| UUGUUUGGUUGAGAGGUUGGGCGAGAUGAUACCAGUAGAGAAGAGUACCCUUGGCAGCAUAAGAAAGAUAUAGUGAUGUUGUAUA [SSTheophA.P] |  |  |  |  |  | 0.422 µM | 0.362 µM | 0.546 µM | 0.566 µM | 0.396 µM |
| UUGUUUGGUUGAGAGGUUGGGCGAGAUGAUACCAGUAUAGUAUUGUACCCUUGGCAGCAUAGGAGAGAUAUAGUGAUGUUGUAUG [SSTheophA.W] |  |  |  |  |  | 0.419 µM | 0.32 µM | 0.457 µM | 0.416 µM | 0.328 µM |
